These results are taken from PMC7114193.

Common to all, as to conditions: modification not given
Assay [1] addresses ACE2 (Homo sapiens), Q9BYF1. Put plainly: NMR.
Assay [2] addresses ACE2 (Homo sapiens), Q9BYF1. Briefly: SPR. A general note: Surface plasmon resonance follows binding to a sensor surface in real time, without labels.
In assay [3] the target is ACE2 (Homo sapiens), Q9BYF1. Briefly: SPR. The source holds these as a separate data set.
Assay [4] concerns the target ACE2 (Homo sapiens), Q9BYF1. Briefly: SPR. The source holds these as a separate data set.
Assay [5] addresses ACE2 (Homo sapiens), Q9BYF1. Briefly: SPR. This is another data set of the same source.

ACE2 (Homo sapiens), Q9BYF1, sequence (Q9BYF1 18-740): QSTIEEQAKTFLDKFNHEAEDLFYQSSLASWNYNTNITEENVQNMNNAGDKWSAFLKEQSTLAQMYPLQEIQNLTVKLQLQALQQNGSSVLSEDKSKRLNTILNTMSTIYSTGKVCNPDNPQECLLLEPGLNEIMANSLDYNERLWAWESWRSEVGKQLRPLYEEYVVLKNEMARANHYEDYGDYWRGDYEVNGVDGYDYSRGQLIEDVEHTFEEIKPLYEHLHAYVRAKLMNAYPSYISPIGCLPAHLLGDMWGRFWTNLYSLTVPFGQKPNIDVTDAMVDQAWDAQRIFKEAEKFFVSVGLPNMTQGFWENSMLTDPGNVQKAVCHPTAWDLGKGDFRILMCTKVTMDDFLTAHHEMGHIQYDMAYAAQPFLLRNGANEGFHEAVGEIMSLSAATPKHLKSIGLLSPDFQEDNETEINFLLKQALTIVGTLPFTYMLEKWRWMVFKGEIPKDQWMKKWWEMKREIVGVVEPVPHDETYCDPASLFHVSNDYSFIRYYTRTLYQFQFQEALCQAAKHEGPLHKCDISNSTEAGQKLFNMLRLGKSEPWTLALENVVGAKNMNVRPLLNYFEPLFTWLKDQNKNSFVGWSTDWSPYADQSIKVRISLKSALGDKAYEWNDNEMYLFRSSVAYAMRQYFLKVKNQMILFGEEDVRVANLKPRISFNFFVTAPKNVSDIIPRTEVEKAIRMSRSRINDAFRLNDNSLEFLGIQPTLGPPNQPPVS

In general, Kd refers to a measure of binding affinity in units of concentration. Read a low Kd as tighter binding. Regarding YKYRYL [RBD-11b peptide], the Kd is 60 µM in assay [1] and 46 µM in assay [2].
In the case of CYWPLNDYGFYT [RBD-14 peptide, P59594], the values for the Kd in assay [2] and in assay [3] were 430 µM and 450 µM, respectively.
In the case of TTGIGYQPYRVV [RBD-15 peptide, P59594], the Kd in assay [4] was determined as 672 µM; in assay [2] it was 450 µM.
Turning to YKYRYLRHGKLR [RBD-11 peptide, P59594], the Kd in assay [5] was 85 µM; in assay [2], 67 µM.
